These results are taken from article PMC11638888 (2024).

B1: mCherry-MYO10-SLC26A4-Ct (NanoSPD bait) [mouse] / μ2-MID-EGFP (NanoSPD prey) [mouse] (parent complex)
chain 1: RVQFPSWNGLGSVPSTDIYKSITHYKNLEEPEGVKILRFSSPIFYGNVDGFKKCINSTVGFDAIRVYNKRLKALRRIQKLIKKGQLRATKNGIISDIGSSNNAFEPDEDVEEPEELNIPTKEIEIQVDWNSELPVKVNVPKVPIHSLVLDCGAVSFLDVVGVRSLRMIVKEFQRIDVNVYFALLQDDVLEKMEQCGFFDDNIRKDRFFLTVHDAILHLQNQVKSREGQDSLLETVARIRDCKDPLDLMEAEMNAEELDVQDEAMRRLAS
chain 2: SETGALKTFITQQGIKSQHQTKEEQSQITSQVTGQIGWRREGIKYRRNELFLDVLESVNLLMSPQGQVLSAHVSGRVVMKSYLSGMPECKFGMNDKIVIEKQGKGTADETSKSGKQSIAIDDCTFHQCVRLSKFDSERSISFIPPDGEFELMRYRTTKDIILPFRVIPLVREVGRTKLEVKVVIKSNFKPSLLAQKIEVRIPTPLNTSGVQVICMKGKAKYKASENAIVWKIKRMAGMKESQISAEIELLPTNDKKKWARPPISMNFEVPFAPSGLKVRYLKVFEPKLNYSDHDVIKWVRYIGRSGIYETRC

The variants in the first assay derive from B1. The assay can be described thus: NanoSPD assay; HeLa cells; mean of biological replicate means; parent: 2.7e+03; read off a plot.
Regarding chain 1 RVQFPSWNGLGSVPSTDIYKSITHAKNLEEPEGVKILRFSSPIFYGNVDGFKKCINSTVGFDAIRVYNKRLKALRRIQKLIKKGQLRATKNGIISDIGSSNNAFEPDEDVEEPEELNIPTKEIEIQVDWNSELPVKVNVPKVPIHSLVLDCGAVSFLDVVGVRSLRMIVKEFQRIDVNVYFALLQDDVLEKMEQCGFFDDNIRKDRFFLTVHDAILHLQNQVKSREGQDSLLETVARIRDCKDPLDLMEAEMNAEELDVQDEAMRRLAS [chain 1 Y25A], the response was around 190 A.U.
Turning to chain 1 RVQFPSWNGLGSVPSTDIAKSITHYKNLEEPEGVKILRFSSPIFAGNVDGFKKCINSTVGFDAIRVYNKRLKALRRIQKLIKKGQLRATKNGIISDIGSSNNAFEPDEDVEEPEELNIPTKEIEIQVDWNSELPVKVNVPKVPIHSLVLDCGAVSFLDVVGVRSLRMIVKEFQRIDVNVAFALLQDDVLEKMEQCGFFDDNIRKDRFFLTVHDAILHLQNQVKSREGQDSLLETVARIRDCKDPLDLMEAEMNAEELDVQDEAMRRLAS [chain 1 Y19A, chain 1 Y45A, chain 1 Y180A], the response was around 530 A.U.
For chain 1 RVQFPSWNGLGSVPSTDIAKSITHAKNLEEPEGVKILRFSSPIFAGNVDGFKKCINSTVGFDAIRVYNKRLKALRRIQKLIKKGQLRATKNGIISDIGSSNNAFEPDEDVEEPEELNIPTKEIEIQVDWNSELPVKVNVPKVPIHSLVLDCGAVSFLDVVGVRSLRMIVKEFQRIDVNVAFALLQDDVLEKMEQCGFFDDNIRKDRFFLTVHDAILHLQNQVKSREGQDSLLETVARIRDCKDPLDLMEAEMNAEELDVQDEAMRRLAS [chain 1 Y19A, chain 1 Y25A, chain 1 Y45A, chain 1 Y180A], the response was around 210 A.U.

The variants in another assay derive from B1. The assay can be described thus: NanoSPD assay; HeLa cells; mean of biological replicate means; parent: 1.3e+04; read off a plot.
For chain 1 RVQFPSWNGLGSVPSTDIYKSITHYKNAEEPEGVKILRFSSPIFYGNVDGFKKCINSTVGFDAIRVYNKRLKALRRIQKLIKKGQLRATKNGIISDIGSSNNAFEPDEDVEEPEELNIPTKEIEIQVDWNSELPVKVNVPKVPIHSLVLDCGAVSFLDVVGVRSLRMIVKEFQRIDVNVYFALLQDDVLEKMEQCGFFDDNIRKDRFFLTVHDAILHLQNQVKSREGQDSLLETVARIRDCKDPLDLMEAEMNAEELDVQDEAMRRLAS [chain 1 L28A], the response was around 2000 A.U.
